# Target: human chorionic gonadotropin (hCG), alpha/beta heterodimer (Homo sapiens) (UniProt P01215+P0DN86)
# Details: hCG magnetic beads with qPCR, artificial urine; round 6 pool 2.54%, round 7 20.88%, round 8 22.85%
# human chorionic gonadotropin (hCG), alpha/beta heterodimer (Homo sapiens), sequence (P01215 25-116, chain 1 of 2, other chains not shown): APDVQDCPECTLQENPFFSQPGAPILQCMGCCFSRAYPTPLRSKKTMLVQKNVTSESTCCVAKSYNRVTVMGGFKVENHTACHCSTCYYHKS
sequence,measurement,value
TCGCACATTCCGCTTCTACCNNNNNNNNNNNNNNNNNNNNNNNNNNNNNNNNNNNNNNNNCGTAAGTCCGTGTGTGCGAA [SELEX round 9 pool],binding signal (% of input DNA bound),77.4
